# Source: patent US20200347127A1 (CRESCENDO BIOLOGICS, published 2020)
# Read-outs that look alike come from different tables or passages of the source.
# B1: VH 1.7.1 (clone 1.7 expressed from phagemid vector: with linker residues and His tag) (VHH)
# VHH: QVQLVESGGGLVQPGGSLRLSCAASGFTFSSYGMYWVRQAPGKGLEWVAKIEQDGSEEYYVDSVKGRFTISRDNAKKSLYLQMNSLRAEDTAVYYCAKGEILPLYFDYWGQGTLVTVSS
# notes: Human single VH domain
# B2: Family 2 (clone 2.1) (VHH)
# VHH: QVQLVESGGGLVQPGGSLRLSCAASGFTFSSYGMGWVRQAPGKGLEWVAKIKQDGSEKDYVDSVKGRFTISRDNAKKSLFLQMNSLRAEDTAVYYCARESIFGIPEDWGQGTLVTVSS
# notes: Human single VH domain; also called VH 2.1.1
# B3: 3.2-6(G4S)-1.2 (VHH)
# VH-linker-VH: QVQLVQSGAEVKKPGASVKVSCKASGYNADAYYINWVRQAPGQGLEWMGSIKPNTGATKYAQKFQGRVTITRDTSISTAYMELSRLRSDDTAVYYCASLDRDTWYPHSYAGWFDAWGQGTLVTVSSAAGGGGSGGGGSGGGGSGGGGSGGGGSGGGGSEVQLVESGGGLVQPGGSLRLSCAASGFTFSSYSMYWVRQAPGKGLEWVAEIKQDGSVQYYVSDVKGRFTISRDNAKNSLYLQMNSLRAEDTAVYYCAKGEILPLYFDYWGQGTLVTVSS
# notes: also called Biparatopic 3.2-6(G4S)-1.2
# B4: VH 3.2.1 (clone 3.2 expressed from phagemid vector: with linker residues and His tag) (VHH)
# VHH: QVQLVQSGAEVKKPGASVKVSCKASGYNADAYYINWVRQAPGQGLEWMGSIKPNTGATKYAQKFQGRVTITRDTSISTAYMELSRLRSDDTAVYYCASLDRDTWYPHSYAGWFDAWGQGTLVTVSS
# notes: Human single VH domain
# B5: 3.2-2(G4S)-1.2 (VHH)
# VH-linker-VH: QVQLVQSGAEVKKPGASVKVSCKASGYNADAYYINWVRQAPGQGLEWMGSIKPNTGATKYAQKFQGRVTITRDTSISTAYMELSRLRSDDTAVYYCASLDRDTWYPHSYAGWFDAWGQGTLVTVSSAAGGGGSGGGGSEVQLVESGGGLVQPGGSLRLSCAASGFTFSSYSMYWVRQAPGKGLEWVAEIKQDGSVQYYVSDVKGRFTISRDNAKNSLYLQMNSLRAEDTAVYYCAKGEILPLYFDYWGQGTLVTVSS
# notes: also called Biparatopic: 3.2-2(G4S)-1.2
# What was measured:
# [1] = molecular target: T1, recombinant human IL-17A (human, UniProt Q16552 24-155); experiment: cell-based or functional assay
# T1 sequence (Q16552 24-155): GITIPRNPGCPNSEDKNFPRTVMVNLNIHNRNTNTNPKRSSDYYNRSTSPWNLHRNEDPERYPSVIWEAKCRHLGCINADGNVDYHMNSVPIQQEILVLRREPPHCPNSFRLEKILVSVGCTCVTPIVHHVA
# [2] = molecular target: T1, recombinant human IL-17A; experiment: VH screening as in examples 7 and 8
# [3] = molecular target: T1, recombinant human IL-17A; experiment: competition ELISA, IL-17A binding to coated IL-17RA-Fc; FIG. 9A
# Description: (§1) Following washing of excess coating antigen, as described above, the wells of the plate were incubated with 3% skimmed milk powder/PBS to block non-specific protein interactions. […] The mixture was then transferred to the assay plate and incubated for 1 hour at room temperature.
# (§2) Where appropriate, curve fitting in PRISM was used to determine the EC₅₀ of inhibiting VH.
# [4] = molecular target: T1, recombinant human IL-17A; experiment: SPR (BIAcore T200), IL-17A coupled to CM5 chip, single-cycle kinetics
# Description: (§3) VH binding kinetics were then determined from the (blank subtracted) sensorgram traces using 1:1 binding models and BIAevaluation software.
# [5] = molecular target: T1, recombinant human IL-17A; experiment: cell-based or functional assay; remark: listed apart in the source
# [6] = molecular target: T1, recombinant human IL-17A; experiment: competition ELISA, IL-17A binding to coated IL-17RA-Fc
# Description: as §1, §2
# [7] = molecular target: T1, recombinant human IL-17A; experiment: SPR (BIAcore T200), IL-17A coupled to CM5 chip, single-cycle kinetics; remark: listed apart in the source
# Description: as §3
# [8] = molecular target: T1, recombinant human IL-17A; experiment: cell-based or functional assay; remark: listed apart in the source
# [9] = molecular target: T1, recombinant human IL-17A; experiment: BIAcore single-cycle kinetics on IL-17A (n=2 per legend)
# [10] = molecular target: T1, recombinant human IL-17A; experiment: BIAcore single-cycle kinetics, ligand Il-17, 1:1 binding fit, 25 C (n=1 per legend)
# [11] = molecular target: T1, recombinant human IL-17A; experiment: cell-based or functional assay; remark: listed apart in the source
# [12] = molecular target: T1, recombinant human IL-17A; experiment: competition ELISA, IL-17A binding to coated IL-17RA-Fc; remark: listed apart in the source
# Description: as §1, §2
# [13] = molecular target: T1, recombinant human IL-17A; experiment: BIAcore single-cycle kinetics on IL-17A (n=2 per legend); remark: listed apart in the source
# [14] = molecular target: T1, recombinant human IL-17A; experiment: SPR (BIAcore T200), IL-17A coupled to CM5 chip, single-cycle kinetics; remark: listed apart in the source
# Description: as §3
# [15] = molecular target: T1, recombinant human IL-17A; experiment: BIAcore single-cycle kinetics, ligand Il-17, 1:1 binding fit, 25 C (n=1 per legend); remark: listed apart in the source
# [16] = molecular target: T1, recombinant human IL-17A; experiment: BIAcore single-cycle kinetics on IL-17A (n=2 per legend); remark: listed apart in the source
# [17] = molecular target: T1, recombinant human IL-17A; experiment: BIAcore single-cycle kinetics, ligand Il-17, 1:1 binding fit, 25 C (n=1 per legend); remark: listed apart in the source
binder,measurement,setting,value
B1,"Cell assay IC50 (nM), IL-17A-induced IL6 release from HT1080",[1],2 nM
same,fold improved affinity over clone 1.1,[2],≤ 10 fold
same,IC50,[3],7000 pM
same,Kd,[4],609 pM
same,koff,[4],0.000466 s⁻¹
same,kon,[4],765000 M⁻¹ s⁻¹
B2,"Cell assay IC50 (nM), IL-17A-induced IL6 release from HT1080",[5],8.3 nM
same,IC50,[6],32000 pM
same,Kd,[7],2000 pM
same,koff,[7],0.00247 s⁻¹
same,kon,[7],1.22e+06 M⁻¹ s⁻¹
B3,EC50,[8],923 pM
same,Kd,[9],20 pM
same,Kd,[10],19.8 pM
same,koff,[10],3.02e-05 s⁻¹
same,kon,[10],1.52e+06 M⁻¹ s⁻¹
B4,"Cell assay IC50 (nM), IL-17A-induced IL6 release from HT1080",[11],2.5 nM
same,IC50,[12],2500 pM
same,Kd,[13],212 pM
same,Kd,[14],230 pM
same,koff,[14],0.000252 s⁻¹
same,kon,[14],1.1e+06 M⁻¹ s⁻¹
same,Kd,[15],150 pM
same,koff,[15],0.000349 s⁻¹
same,kon,[15],2.28e+06 M⁻¹ s⁻¹
B5,EC50,[8],1070 pM
same,Kd,[16],45 pM
same,Kd,[17],42.9 pM
same,koff,[17],4.75e-05 s⁻¹
same,kon,[17],1.1e+06 M⁻¹ s⁻¹
